Data from IntAct's records for PubMed 18715871.

B1: Serine/threonine-protein phosphatase 4 regulatory subunit 4 (Homo sapiens), Q6NUP7 (parent)
chain: MHPPPPAAAMDFSQNSLFGYMEDLQELTIIERPVRRSLKTPEEIERLTVDEDLSDIERAVYLLSAGQDVQGTSVIANLPFLMRQNPTETLRRVLPKVREALHVAGVEMQLTAAMSFLTILQDESVSIHAYTHSFLQVILLHLEHRDTGVSNAWLETLLSVIEVLPKETLRHEILNPLVSKAQLSQTVQSRLVSCKILGKLTNKFDAHTIKREILPLVKSLCQDVEYEVRSCMCRQLENIAQGIGTELTKSVVLPELIELSRDEGSSVRLAAFETLVNLLDIFDTDDRSQTILPLVKSFCEKSFKADESILISLSFHLGKLCHGLYGIFTPDQHLRFLEFYKKLCTLGLQQENGHNENQIPPQILEQEKKYISVRKNCAYNFPAMIVFVDPKNFHMELYSTFFCLCHDPEVPVRYTIAICFYEVSKLLNSGVYLIHKELITLLQDESLEVLDALIDHLPEILELMSTGGESSVQENKLSSLPDLIPALTAAEQRAAASLKWRTHEKLLQKYACLPHVISSDQIYYRFLQRMFTIMMTNNVLPVQKAASRTLCIFLRYNRKQEQRHEVIQKLIEQLGQGKSYWNRLRFLDTCEFIIEIFSKSFFCKYFFLPAIELTHDPVANVRMKLCYLLPKVKSTLKIPADKHLLQQLEMCVRKLLCQEKDKDVLAIVKRTVLELDRMEMSMDAFQKKFYEKDLLDQEKEREELLLLEMEQLEKEKQQNDGRPMSDKMFEKKRRDTKTPTQSLPKNIPISVPGPSSVTPSTSKEIKKSKLIRSQSFNNQAFHAKYGNLEKCASKSSTTGYTTSVSGLGKTSVLSLADDSFRTRNASSVPSSFSPNTPLPSTSRGTGNSVDPKSSGSKDTQPRKATLKSRKSNP
partner: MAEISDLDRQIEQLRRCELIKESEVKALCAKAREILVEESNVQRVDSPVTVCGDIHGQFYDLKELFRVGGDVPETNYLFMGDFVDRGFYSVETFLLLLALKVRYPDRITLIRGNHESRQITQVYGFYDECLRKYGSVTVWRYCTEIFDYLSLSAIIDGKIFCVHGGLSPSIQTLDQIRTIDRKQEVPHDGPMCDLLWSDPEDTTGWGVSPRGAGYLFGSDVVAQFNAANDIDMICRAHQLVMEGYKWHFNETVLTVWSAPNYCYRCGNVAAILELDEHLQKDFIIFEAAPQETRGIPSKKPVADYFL
B2: Serine/threonine-protein phosphatase 4 catalytic subunit (Homo sapiens), P60510 (parent)
chain: B1 partner
partner: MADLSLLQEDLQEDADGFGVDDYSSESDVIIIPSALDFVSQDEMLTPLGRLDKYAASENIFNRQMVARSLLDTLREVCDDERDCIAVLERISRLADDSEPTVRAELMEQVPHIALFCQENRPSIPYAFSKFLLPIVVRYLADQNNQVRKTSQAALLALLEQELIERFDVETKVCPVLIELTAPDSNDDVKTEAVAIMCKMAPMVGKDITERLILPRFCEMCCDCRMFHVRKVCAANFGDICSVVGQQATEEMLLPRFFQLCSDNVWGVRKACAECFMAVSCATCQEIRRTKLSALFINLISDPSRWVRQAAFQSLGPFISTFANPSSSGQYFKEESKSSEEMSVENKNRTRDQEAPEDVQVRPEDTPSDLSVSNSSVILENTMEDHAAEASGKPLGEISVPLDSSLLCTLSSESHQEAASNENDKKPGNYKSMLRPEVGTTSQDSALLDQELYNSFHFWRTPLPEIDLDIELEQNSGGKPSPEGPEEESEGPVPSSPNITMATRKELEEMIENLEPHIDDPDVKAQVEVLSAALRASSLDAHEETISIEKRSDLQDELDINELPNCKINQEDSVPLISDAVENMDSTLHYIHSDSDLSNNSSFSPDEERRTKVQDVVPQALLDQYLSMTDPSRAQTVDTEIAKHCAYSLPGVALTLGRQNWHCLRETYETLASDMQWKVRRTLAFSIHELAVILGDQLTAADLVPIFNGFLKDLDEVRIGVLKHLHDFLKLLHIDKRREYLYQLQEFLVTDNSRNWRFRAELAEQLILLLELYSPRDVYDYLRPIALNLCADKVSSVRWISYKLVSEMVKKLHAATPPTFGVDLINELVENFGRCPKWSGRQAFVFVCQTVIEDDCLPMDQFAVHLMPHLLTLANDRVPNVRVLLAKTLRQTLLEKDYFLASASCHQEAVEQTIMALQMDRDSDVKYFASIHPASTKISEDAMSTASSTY
B3: Serine/threonine-protein phosphatase 4 catalytic subunit (Homo sapiens), P60510 (parent)
chain: B1 partner
partner: B1 chain
B4: Serine/threonine-protein phosphatase 4 catalytic subunit (Homo sapiens), P60510 (parent)
chain: B1 partner
partner: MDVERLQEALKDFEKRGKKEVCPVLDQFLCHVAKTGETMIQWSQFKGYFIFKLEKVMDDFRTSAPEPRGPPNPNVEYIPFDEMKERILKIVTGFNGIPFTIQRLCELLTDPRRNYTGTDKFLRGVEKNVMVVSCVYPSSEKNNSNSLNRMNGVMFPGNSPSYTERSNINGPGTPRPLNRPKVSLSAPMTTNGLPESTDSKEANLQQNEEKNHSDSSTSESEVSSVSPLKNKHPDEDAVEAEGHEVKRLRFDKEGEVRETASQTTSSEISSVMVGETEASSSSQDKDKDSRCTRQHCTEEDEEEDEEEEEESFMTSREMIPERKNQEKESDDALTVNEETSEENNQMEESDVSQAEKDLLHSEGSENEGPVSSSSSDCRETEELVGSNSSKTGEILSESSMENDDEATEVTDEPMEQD

Variants of: B1
Settings: with pp4c_human PPP4C

Row | Variant | effect of a mutation on the interaction
1 | V618D | disrupting interaction
2 | V618A | disrupting interaction
3 | R501D | disrupting interaction

Variants of: B2
Settings: with pp4r1_human PPP4R1, Q8TF05

Row | Variant | effect of a mutation on the interaction
4 | E39K | disrupting interaction
5 | N76D | disrupting interaction
6 | E277K | decreasing interaction
7 | R107E | disrupting interaction
8 | E64K | disrupting interaction

Variants of: B3
Settings: with pp4r4_human PPP4R4, Q6NUP7

Row | Variant | effect of a mutation on the interaction
9 | N76D | decreasing interaction
10 | E277K | disrupting interaction
11 | R107E | decreasing interaction
12 | E39K | decreasing interaction
13 | E64K | disrupting interaction

Variants of: B4
Settings: with pp4r2_human PPP4R2, Q9NY27

Row | Variant | effect of a mutation on the interaction
14 | E277K | decreasing interaction
15 | N76D | disrupting interaction
16 | R107E | disrupting interaction
17 | E39K | disrupting interaction
